Molecular target: human thrombopoietin receptor (human c-Mpl) (human) (UniProt P40238)
Test: cell-based or functional assay

UT7/TPO (Max): 100%
Substance: PEG-rHuMGDF (Pegylated Recombinant Human Megakaryocyte Growth and Development Factor) (ligand)
